Measurements from US20260116991A1 (HAINAN SIMCERE ZAIMING PHARMACEUTICAL, published 2026).

Molecular target: T1, murine GPC3-his protein (Sino Biological, Cat. No. 50989-M08B) (murine, UniProt Q8CFZ4 25-558)
T1 construct: Bought protein; also called murine GPC3 protein
Assay: ELISA, coated murine GPC3-His;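 note: antigen coated on plates at 1 µg/mL, test antibody bound for 2 h at 37 °C, detected with HRP-conjugated secondary antibody and TMB substrate after acid stop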
Procedure: The specific method is described as follows: The antigen protein was diluted with PBS to a final concentration of 1 μg/mL, and the diluent was added to a 96-well ELISA plate at 50 μL/well. The plate was sealed with a plastic film and incubated at 4° C. overnight, washed twice with PBS the next day, and a blocking solution [PBS+2% (w/w) BSA] was added for blocking at room temperature for 2 h. […] After incubation at 37° C. for 2 h, the plate was washed 3 times with PBS. A horseradish peroxidase (HRP)-labeled secondary antibody (purchased from Merck, Cat. No. AP113P) was added for incubation at 37° C. for 1 h, and the plate was washed 5 times with PBS. A TMB substrate was added at 50 μL/well for incubation at room temperature for 10 min, then a stop solution (1.0M HCl) was added at 50 μL/well. An ELISA plate reader (Multimode Plate Reader, EnSight, purchased from Perkin Elmer) was used to read OD_{450 nm} values, with results as shown in Table 4 to Table 6, FIG. 1A, FIG. 1B, and FIG. 1C.

T1 sequence (Q8CFZ4 25-558 limits assumed): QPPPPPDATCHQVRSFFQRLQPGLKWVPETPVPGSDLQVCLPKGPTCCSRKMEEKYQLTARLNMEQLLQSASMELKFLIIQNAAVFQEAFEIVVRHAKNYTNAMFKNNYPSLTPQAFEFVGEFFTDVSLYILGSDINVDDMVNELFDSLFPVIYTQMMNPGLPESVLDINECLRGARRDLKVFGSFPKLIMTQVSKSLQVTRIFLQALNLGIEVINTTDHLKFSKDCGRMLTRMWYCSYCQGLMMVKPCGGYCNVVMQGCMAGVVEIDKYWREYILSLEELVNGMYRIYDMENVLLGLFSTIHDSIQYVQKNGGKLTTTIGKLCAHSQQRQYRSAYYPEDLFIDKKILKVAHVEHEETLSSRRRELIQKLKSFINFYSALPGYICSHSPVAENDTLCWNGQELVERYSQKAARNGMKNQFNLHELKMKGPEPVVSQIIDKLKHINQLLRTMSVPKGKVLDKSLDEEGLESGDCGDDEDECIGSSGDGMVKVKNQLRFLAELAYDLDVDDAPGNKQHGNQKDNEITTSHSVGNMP

Binder	OD450 at 0.0001 nM antibody [OD450 nm]	OD450 at 0.001 nM antibody [OD450 nm]	OD450 at 0.01 nM antibody [OD450 nm]	OD450 at 0.1 nM antibody [OD450 nm]	OD450 at 1 nM antibody [OD450 nm]	OD450 at 10 nM antibody [OD450 nm]	OD450 at 100 nM antibody [OD450 nm]
F3.81.19 human-murine chimeric antibody (antibody, human IgG1, kappa, V domains shown) VH: QVQLQQSGAELVRPGASVKLSCKASGYTFTDYEMHWVKQTPVHGLEWIGTIDPETGNTAYNQKFKGKATLTADKSSSTAYMELRSLTSEDSAVYYCTRPYSLTYWGQGTLVTVSA VL: DVLLTQTPLSLPVSLGDQASISCRSSQSFVHSNGDTYLQWYLQKPGQSPKLLIYKVSNRFSGVPDRFSGSGSGTDFTLKISRVEAEDLGVYYCFQGSHVPYTFGSGTKLEIKR	0.05	0.05	0.04	0.04	0.05	0.05	0.1
F2.39.2 human-murine chimeric antibody (antibody, human IgG1, kappa, V domains shown) VH: QVQLQQSGAELVRPGASVKVSCKASGYTFTDYEMHWMKQTPVHGLEWIGANEPETGRSAYDQKFKGKATLTADKSSSTAYMELRSLTSEDSAVYYCTRFYSFAYWGQGTLVTVSA VL: DVVMTQTPLSLPVSLGDQASISCRSSQGLVHNNGNTYLHWYLQKPGQSPKLLIYKVSNRFSGVPDRFSGSGSGTDFTLKISRVEAEDLGVYFCSQNTHVPPTFGGGTKLEIKR	0.05	0.06	0.07	0.05	0.05	0.05	0.06
F2.92.1 human-murine chimeric antibody (antibody, human IgG1, kappa, V domains shown) VH: QVQLQQSGAELVRPGASVKLSCKASGYIFSDYEIHWVKQTPVHGLECIGAVDPETGGTAYNQKFKGKATLTADKSSSTAYMELRSLTSEDSAVYFCTRFYSFAYWGQGTLVTVST VL: DVVMTQTPLSLPVSLGDQGSISCRSSQSLVHSNGNTYLQWYLQKPGQSPKLLIYKVSNRFSGVPDRFSGSGSGTDFTLKISRVEAEDLGVYFCCQSTHVLPTFGGGTKLEIKR	0.04	0.05	0.05	0.07	0.05	0.05	0.07
F4.21.16 human-murine chimeric antibody (antibody, human IgG1, kappa, V domains shown) VH: DVQLQESGPGLVKPSQSLSLTCSVTGYSITSGYYWNWIRQFPGNKLEWMGYISYDVTVNYNPSLKNRISITRDTSKNQFFLKLNSVTTEDTATYYCATITSVASMDHWGQGTSVTVSS VL: DILMTQTPLSLPVSLGDQASISCRSSQNIVHRNGNTYLEWYLQKPGQSPKLLLYKVSNRFSGVPDRFSGSGSGTDFTLKISRVEAEDLGIYYCFQGSHFPFTFGSGTKLEIKR	0.05	0.05	0.04	0.09	0.05	0.05	0.08

Results, then the binder that gave them:

OD450 at 0.0001 nM antibody [OD450 nm]	OD450 at 0.001 nM antibody [OD450 nm]	OD450 at 0.01 nM antibody [OD450 nm]	OD450 at 0.1 nM antibody [OD450 nm]	OD450 at 1 nM antibody [OD450 nm]	OD450 at 10 nM antibody [OD450 nm]	OD450 at 100 nM antibody [OD450 nm]	Binder
0.05	0.06	0.07	0.04	0.06	0.05	0.06	F2.23.8 human-murine chimeric antibody (antibody, human IgG1, kappa, V domains shown) VH: QVQLQQSGAELVRPGASVKLSCKASGYTFTDYEMHWVKQTPVHGLEWFGAIDPETGGTAYNQKFRAKATLTADKSSSTAYMELRSLTSEDSAVYYCTRFYSFAYWGQGTLVTVSA VL: DVVMTQTPLSLPVSLGDQASISCRSSQSLVHSNGNTYLQWYLQKPGQSPKLLIYKVSNRFSGVPDRFSGSGSGTDFTLKITRVEAEDLGVYFCSQSTHVPYTFGSGTKLEIKR
0.06	0.07	0.11	0.57	0.98	1.29	0.68	F4.26.1 human-murine chimeric antibody (antibody, human IgG1, kappa, V domains shown) VH: QVQLKQSGPGLVQPSQSLSITCTVSGFSLTSYGVHWVRQSPGKGLEWLGVIWSSGNTDYNAVLISRLSIKKDDSKSQVFFKMNSPQVDDSAIYYCGRNGGWLLRGFMDFWGQGTSVTVSS VL: DVVMTQTPLSLPVSLGDQASISCRSSQSLLHSNGNTYLHWYLQRSGQSPNLLIYKVSNRFSGVPDRFSGGGSGTDFTLKISRVEAEDLGIYFCSQSTHVPWTFGGGTKLEIKR
0.06	0.06	0.05	0.04	0.05	0.06	0.12	F3.38.7 human-murine chimeric antibody (antibody, human IgG1, kappa, V domains shown) VH: QVQLQQSGAELVRPGASVKLSCKASGYTFTDYEIHWVKQTPVLGLEWIGAIDPKTGNTAYNQKFMGKATLTADKSSTTAYMDLRSLTSEDSAVYYCTRYFSFAYWGQGTLVTVSA VL: DVLMTQTPLSLPVSLGDQASISCRSSQTFVHSNGNTYLQWYLQKPGQSPKLLIYKVSNRFSGVPDRFSGSGSGTDFTLKISRVEAEDLGVYYCFQGSHVPYTFGSGTKLEIKR
0.11	0.05	0.05	0.05	0.05	0.09	0.34	F3.54.12 human-murine chimeric antibody (antibody, human IgG1, kappa, V domains shown) VH: QVQLQQSGAELVRPGASVKLSCKASGYTFTDYEMHWVKQTPVHGLEWIGAIDPETGNTAYIQKFKGKATLTTDKSSSTAYMELRSLTSEDSAVYYCTRFYSYSHWGQGTTLTVSS VL: DVVMTQTPLSLPVSLGDQASISCRSSQSLVHSNGNTYLHWYLQKPGQSPKLLIYKVSNRFSGVPDRFSGSSSGTDFTLKISRVEAEDLGVYFCSQNTHVPPTFGGGTKLEIKR
